This note sets out measurements from patent US12070492B2, “Therapeutic compositions and methods with cytokine signaling immunomodulators” (Hennepin Healthcare Research Institute, priority 2016, dated 2024).

Data set [1] can be described thus: Histopathology across four treatment groups. Format: in vivo, BALB/c mice. How it is done: FIG. 12. Co-administration of vaccines and an anti-IL-4 mAb is safe. Histopathology across four treatment groups. […] Occasionally, these regions of were centered on lymphocyte-rich lymphatic vessels. The severity of the lung pathology was similar across the four treatment groups.
(§1) Male BALB/c mice were immunized with KLH, OXY-KLH, anti-IL-4 mAb, or OXY-KLH plus anti-IL-4 mAb. The OXY-KLH and the unconjugated KLH control were administered subcutaneously on days 0, 14 and 28, while the anti-IL-4 mAb was administered intraperitoneally as in EXAMPLE 2. A week after the third immunization, mice were euthanized with CO2 to perform histopathology and clinical pathology by serum chemistry. Organs were harvested and preserved in 10% formaldehyde (methanol free, ultrapure EM grade, Polysciences, Inc., Warminster, PA), and sent to the University of Minnesota School of Veterinary Medicine for histology analysis in the laboratory of Dr. Davis Seelig. Serum was collected by centrifugation at 7500 rpm for three minutes at 4° C. and collected in lithium heparin ([…], Becton, Dickinson and Co., Franklin Lakes, NJ). Frozen samples were sent to Marshfield Labs (Marshfield, WI) for the panel tests analysis.

Data set [2] is described as follows: Pre-clinical toxicology: serum biochemistry parameters and body weight. Format: in vivo, BALB/c mice. As to the method:
Serum biochemistry parameters in BALB/C mice treated with KLH, OXY-KLH, anti-IL-4 mAb, or anti-IL-4 mAb plus OXY-KLH. […] The values for AST (aspartate aminotransferase) were higher among groups, perhaps as a result of muscle injury due from the injections.
as §1

For data set [3], the system named is 6OXY-specific GC B cells. Briefly: 6OXY-specific GC B cells by magnetic enrichment and flow cytometry after OXY-KLH with IL-4. Format: in vivo, mice. Particulars: IL-4 60,000 IU s.c. with OXY-KLH in alum, seven days after one immunization. The source says: FIG. 4. IL-4 increased vaccine-specific GC B cells and post-vaccination GC formation. Mice were immunized subcutaneously once with the OXY-KLH vaccine adsorbed in alum adjuvant with saline or IL-4 (60,000 IU, subcutaneously). At seven days after immunization, lymph nodes and spleens were collected for analysis of antigen-specific B cell populations. Using a two-step procedure, OXY-specific B cells were first isolated by magnetic enrichment using biotinylated oxycodone-based haptens conjugated to streptavidin (SA) conjugated to the fluorescent protein phycoerythrin (PE) or a decoy reagent, and then analyzed by multi-parameter flow cytometry. (A) 6OXY-specific CD38^neg GL7^high “committed” GC B cells; (B) 6OXY-specific CD38^+ GL7^+ “uncommitted” GC B cells; (C) Ratio of 6OXY-specific (CD38^neg) to (CD38^+) GL7^+ B cells, a measure of GC activation and B cell commitment to GC-dependent pathways; (D) 6OXY-specific IgM^high naive and memory B cells. Data shown are from two independent experiments and expressed as mean±SEM (n=10). […] Statistical symbols: *p<0.05, and […].
Mice were immunized subcutaneously once with OXY-KLH in alum adjuvant in combination with IL-4 (60,000 IU, Bio-Techne Corp., Minneapolis, MN). […]

The mark [4] stands for this setting: serum, BALB/c mice, a week after third immunization, mean ± SEM.

As to keyhole limpet hemocyanin [KLH], in data set [1] (mouse, in vivo), the “Histopathology, kidney, heart, thymus, stomach, small intestine, large intestine, and pancreas” value is recorded as “No significant pathology”; the “Histopathology, spleen” value is “No significant pathology”. Further, in data set [1] (similar in severity across four treatment groups), the “Histopathology, liver (centrolobular hepatocytes)” value is “occasionally moderate vacuolar change”. The “Histopathology, lungs (interstitium)” value in data set [1] (with concurrent congestion, severity similar across the four treatment groups) is recorded as “mild to occasionally moderately increased numbers of inflammatory cells”. Moreover, the Body weight in data set [2] (BALB/c mice, a week after third immunization, mean ± SEM) is listed as 26.5 ± 0.39 g. For the same molecule, in data set [2] (serum, BALB/C mice), the “Protein, bilirubin, ALT, urea nitrogen, and total cholesterol versus normal range” value is “in the normal range”. In addition, the “Values for AST (aspartate aminotransferase)” value in data set [2] (serum, BALB/C mice, perhaps muscle injury from the injections) is given as “higher”. Further, in data set [2] (setting [4]), the ALT is given as 71.6 ± 3.2^ U/L, the AST was 626 ± 24.7 U/L, the Cholesterol was found to be 161 ± 10.4 mg/dL and the Total bilirubin turned out to be 0.2 ± 0.10 mg/dL. In data set [2] (setting [4]), this molecule showed a Total protein of 5.7 ± 0.32 g/dL and a Urea nitrogen of 20 ± 1.5 mg/dL.

B1: IL-4: recombinant mouse IL-4 from Bio-Techne Corp., co-administered with OXY-KLH (protein, UniProt P07750 21-140, looked up)
Interleukin-4: HIHGCDKNHLREIIGILNEVTGEGTPCTEMDVPNVLTATKNTTESELVCRASKVLRIFYLKHGKTPCLKKNSSVLMELQRLFRAFRCLDSSISCTMNESKSTSLKDFLESLKSIMQMDYS
On to B1, for which, in data set [3], the “post-vaccination GC formation (fraction of subjects)” value is recorded as “increased” and the “vaccine-specific GC B cells” value is given as “increased”.
